In data set [1] the target is T1, G6PDH-C (Pseudomonas putida, UniProt Q88C32).
T1 construct: gene zwf
T1 sequence (Q88C32 1-485): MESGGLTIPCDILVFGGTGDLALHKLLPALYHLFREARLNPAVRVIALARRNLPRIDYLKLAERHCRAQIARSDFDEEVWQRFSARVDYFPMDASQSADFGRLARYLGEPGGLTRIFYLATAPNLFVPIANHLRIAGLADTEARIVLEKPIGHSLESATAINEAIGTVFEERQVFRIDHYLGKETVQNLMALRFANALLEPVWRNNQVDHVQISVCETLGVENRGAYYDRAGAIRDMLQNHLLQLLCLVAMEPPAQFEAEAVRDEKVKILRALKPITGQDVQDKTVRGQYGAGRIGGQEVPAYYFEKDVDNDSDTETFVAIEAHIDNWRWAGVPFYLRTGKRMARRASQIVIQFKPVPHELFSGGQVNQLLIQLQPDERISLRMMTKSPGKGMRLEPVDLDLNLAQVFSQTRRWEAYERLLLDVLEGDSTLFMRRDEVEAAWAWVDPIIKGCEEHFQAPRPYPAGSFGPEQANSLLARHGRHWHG
Kind of data set: initial rates, NAD(P)H formation at […] nm, global fit (DYNAFIT), rapid-equilibrium random-ordered model. The class given is biochemical. To be noted: buffer A (50 mM Tris-HCl, 5 mM NaCl, 5 mM MgCl2, 5% glycerol), pH 8.0, 30°C, G6P varied.

The target in data set [2] is T2, G6PDH-B (Pseudomonas putida, UniProt Q88FP7).
T2 construct: gene zwfB
T2 sequence (Q88FP7 1-501): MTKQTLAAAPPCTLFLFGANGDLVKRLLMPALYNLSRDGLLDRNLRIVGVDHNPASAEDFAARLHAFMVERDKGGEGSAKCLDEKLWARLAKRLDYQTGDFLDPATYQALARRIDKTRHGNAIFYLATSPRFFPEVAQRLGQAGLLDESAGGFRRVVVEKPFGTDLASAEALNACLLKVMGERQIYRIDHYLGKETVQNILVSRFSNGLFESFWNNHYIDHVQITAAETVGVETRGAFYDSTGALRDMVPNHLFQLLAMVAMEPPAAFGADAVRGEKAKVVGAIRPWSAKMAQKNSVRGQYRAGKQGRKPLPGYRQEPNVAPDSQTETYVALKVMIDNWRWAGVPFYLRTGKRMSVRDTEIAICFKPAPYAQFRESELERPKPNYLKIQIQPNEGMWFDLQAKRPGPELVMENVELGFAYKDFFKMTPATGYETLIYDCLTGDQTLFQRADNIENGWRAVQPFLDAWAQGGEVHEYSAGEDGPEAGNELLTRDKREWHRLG
The description is as above. The format is biochemical. To be noted: buffer A (50 mM Tris-HCl, 5 mM NaCl, 5 mM MgCl2, 5% glycerol), pH 8.0, 30°C, G6P varied.

Substrate in data set [3]: NC(=O)c1ccc[n+]([C@@H]2O[C@H](COP(=O)(O)OP(=O)(O)OC[C@H]3O[C@@H](n4cnc5c(N)ncnc54)[C@H](O)[C@@H]3O)[C@@H](O)[C@H]2O)c1
In words: purified protein. The following applies: G6P co-substrate, buffer A (50 mM Tris-HCl, 5 mM NaCl, 5 mM MgCl2, 5% glycerol), pH 8.0, 30°C. The class given is biochemical, Pseudomonas putida.

Substrate in data set [4]: NC(=O)c1ccc[n+]([C@@H]2O[C@H](COP(=O)(O)OP(=O)(O)OC[C@H]3O[C@@H](n4cnc5c(N)ncnc54)[C@H](OP(=O)(O)O)[C@@H]3O)[C@@H](O)[C@H]2O)c1
Kind of data set: purified protein. The format is biochemical, Pseudomonas putida. To be noted: G6P co-substrate, buffer A (50 mM Tris-HCl, 5 mM NaCl, 5 mM MgCl2, 5% glycerol), pH 8.0, 30°C.

Where [5] appears, read: dissociation constant of NAD+ from free enzyme, read-out: NAD^+ / Ki.
The mark [6] stands for this setting: dissociation constant of NADP+ from free enzyme, read-out: NADP^+ / Ki.

Where two headings read alike, the source gives them in different places.

Consider `NC(=O)c1ccc[n+]([C@@H]2O[C@H](COP(=O)(O)OP(=O)(O)OC[C@H]3O[C@@H](n4cnc5c(N)ncnc54)[C@H](O)[C@@H]3O)[C@@H](O)[C@H]2O)c1` [NAD^+], for which the Kd in data set [1] (setting [5]) stood at 5800 µM; in data set [2] (setting [5]), 301 ± 48 µM.

Turning to `NC(=O)c1ccc[n+]([C@@H]2O[C@H](COP(=O)(O)OP(=O)(O)OC[C@H]3O[C@@H](n4cnc5c(N)ncnc54)[C@H](OP(=O)(O)O)[C@@H]3O)[C@@H](O)[C@H]2O)c1` [NADP^+], the values for the Kd in data set [1] (setting [6]) and in data set [2] (setting [6]) were 9.2 ± 1.9 µM and 790 ± 110 µM, respectively.

B1: G6PDH-C (Pseudomonas putida KT2440) (protein)
chain: T1 sequence (Q88C32 1-485)
For B1, in data set [3], the Michaelis-Menten constant (Km) entry was “(9.5 ± 1.1)×10^3 μM” and the kcat is listed as 0.77 ± 0.04 s^–1. In addition, in data set [4], the Km was found to be 3.2 ± 0.7 µM and the kcat turned out to be 0.54 ± 0.02 s^–1.

B2: G6PDH-B (Pseudomonas putida KT2440) (protein)
chain: T2 sequence (Q88FP7 1-501)
In the case of B2, the Km came out at 151 ± 7 µM in data set [3] and 165 ± 11 µM in data set [4]. In addition, the kcat stood at 120 ± 1 s^–1 in data set [3] and 113 ± 1 s^–1 in data set [4].

What is called Km is the substrate concentration at which the rate is half of its maximum.

These data come from PMC8546961, “Cofactor Specificity of Glucose-6-Phosphate Dehydrogenase Isozymes in Pseudomonas putida Reveals a General Principle Underlying Glycolytic Strategies in Bacteria” (mSystems, 2021).
